Laboratory results as given in the Human Domainome abundance scans (Beltran et al. 2025).
± gives the uncertainty stated by the source.

B1: Triacylglycerol hydrolase DDHD2, residues 389 to 447; numbered along this chain, O94830 (parent)
chain: TLEEDLKKLQLSEFFDIFEKEKVDKEALALCTDRDLQEIGIPLGPRKKILNYFSTRKNS

Variants of: B1
Test: abundance fitness (aPCA) (normalised: wild type 0, dead -1); higher = more abundant; growth selection in yeast, the domain comes from the species named
Conditions: Homo sapiens

Row | Variant | abundance fitness
1 | D33I | -0.821 ± 0.16
2 | K25T | -0.302 ± 0.1
3 | K25Q | -0.285 ± 0.097
4 | K25N | -0.494 ± 0.16
5 | K22L | -0.172 ± 0.064
6 | K22E | 0.141 ± 0.093
7 | K22C | -0.083 ± 0.09
8 | K22S | 0.107 ± 0.075
9 | K22Y | 0.089 ± 0.1
10 | K22H | 0.076 ± 0.11
11 | K22W | -0.729 ± 0.13
12 | K22F | 0.002 ± 0.09
13 | T32H | -0.359 ± 0.14
14 | T32K | 0.083 ± 0.097
15 | E38V | -0.036 ± 0.065
16 | E38Q | -0.161 ± 0.13
17 | E38A | 0.181 ± 0.077
18 | E38P | -0.888 ± 0.15
19 | E38H | -0.302 ± 0.1
20 | F18E | -0.508 ± 0.15
21 | L2M | 0.041 ± 0.085
22 | L2I | -0.017 ± 0.094
23 | L2A | -0.609 ± 0.07
24 | L2Q | -0.65 ± 0.12

Row | Variant | abundance fitness
25 | L28M | -0.067 ± 0.11
26 | D24V | -0.707 ± 0.12
27 | D24F | -0.033 ± 0.13
28 | D24L | -0.881 ± 0.13
29 | D24Y | -0.627 ± 0.2
30 | D24M | -0.286 ± 0.13
31 | A29S | 0.106 ± 0.063
32 | A29W | -0.399 ± 0.09
33 | A29M | -0.156 ± 0.11
34 | I39N | -0.249 ± 0.18
35 | I39W | 0.613 ± 0.072
36 | I39C | -0.411 ± 0.12
37 | I39Q | -0.146 ± 0.086
38 | I39V | -0.052 ± 0.07
39 | L6H | -0.754 ± 0.46
40 | L6P | -0.35 ± 0.1
41 | L6M | -0.208 ± 0.12
42 | K20G | -0.26 ± 0.12
43 | K20F | -0.524 ± 0.15
44 | K20P | -0.591 ± 0.095
45 | K20S | -0.332 ± 0.088
46 | K20Q | -0.317 ± 0.11
47 | K20D | -0.126 ± 0.14
48 | K20T | -0.104 ± 0.09

Row | Variant | abundance fitness
49 | S54W | -0.471 ± 0.09
50 | S54I | -0.146 ± 0.11
51 | D35A | -0.309 ± 0.084
52 | D35Y | 0.207 ± 0.12
53 | K48R | 0.088 ± 0.064
54 | F14C | -0.28 ± 0.11
55 | F14Y | -0.506 ± 0.28
56 | F14P | -0.581 ± 0.097
57 | G44N | 0.041 ± 0.058
58 | G44W | -0.275 ± 0.07
59 | Q37N | -0.305 ± 0.14
60 | Q37S | -0.178 ± 0.07
61 | C31M | 0.977 ± 0.084
62 | C31P | -0.196 ± 0.11
63 | K57S | -0.115 ± 0.072
64 | K57C | -0.269 ± 0.093
65 | K57A | -0.102 ± 0.069
66 | V23E | -0.434 ± 0.091
67 | V23K | 0.101 ± 0.11
68 | L11N | -1.02 ± 0.21
69 | L11G | -1.22 ± 0.095
70 | L11T | -0.871 ± 0.093
71 | L11F | -1.05 ± 0.17
72 | L36E | -0.363 ± 0.1

Row | Variant | abundance fitness
73 | L36H | -0.352 ± 0.17
74 | L36Q | -0.448 ± 0.12
75 | L36F | -0.797 ± 0.15
76 | E26Q | -0.107 ± 0.1
77 | E26V | -0.21 ± 0.08
78 | R34C | 0.011 ± 0.093
79 | R34Y | 0.367 ± 0.093
80 | A27N | 0.263 ± 0.15
81 | S59E | 0.075 ± 0.18
82 | S59H | -0.056 ± 0.17
83 | S59D | 0.23 ± 0.17
84 | S59T | -0.085 ± 0.11
85 | R56F | -0.074 ± 0.11
86 | R56D | 0.05 ± 0.11
87 | R56N | -0.236 ± 0.15
88 | R56Q | 0.143 ± 0.11
89 | R56T | 0.033 ± 0.081
90 | K7A | -0.032 ± 0.086
91 | K7Q | 0.083 ± 0.12
92 | K7R | 0.108 ± 0.074
93 | E19Y | -0.255 ± 0.12
94 | E19G | -0.359 ± 0.072
95 | Y52V | -0.26 ± 0.066
96 | T1M | -0.475 ± 0.21

Row | Variant | abundance fitness
97 | N51S | 0.14 ± 0.065
98 | N51M | 0.084 ± 0.088
99 | N51K | 0.044 ± 0.097
100 | N51G | 0.061 ± 0.07
101 | D5C | -0.033 ± 0.1
102 | D5Q | -0.062 ± 0.068
103 | D5H | 0.004 ± 0.11
104 | D5L | 0.021 ± 0.052
105 | I49T | -0.301 ± 0.1
106 | I49L | -0.077 ± 0.069
107 | I49E | -0.052 ± 0.093
108 | I49N | -0.589 ± 0.14
109 | I49K | -0.467 ± 0.13
110 | I49R | -0.489 ± 0.076
111 | R46S | -0.058 ± 0.066
112 | R46C | -0.172 ± 0.08
113 | L50H | -0.087 ± 0.14
114 | L50A | -0.415 ± 0.089
115 | L50P | -0.401 ± 0.11
116 | F15Q | -0.103 ± 0.086
117 | F15W | -0.311 ± 0.098
118 | F15L | 0.02 ± 0.067
119 | F15N | 0.05 ± 0.21
120 | F15H | -0.084 ± 0.18

Row | Variant | abundance fitness
121 | Q10P | -0.863 ± 0.093
122 | Q10G | -0.131 ± 0.046
123 | L43T | 0.543 ± 0.054
124 | I17V | 0.128 ± 0.34
125 | F53H | -0.285 ± 0.13
126 | F53D | -0.03 ± 0.095
127 | F53L | -0.324 ± 0.078
128 | E13W | -1.45 ± 0.27
129 | E13R | -0.408 ± 0.098
130 | K47I | 0.193 ± 0.11
131 | K47Y | -0.524 ± 0.18
132 | K47N | 0.254 ± 0.1
133 | K47Q | 0.492 ± 0.1
134 | K47L | -0.087 ± 0.071
135 | K47M | 0.58 ± 0.11
136 | L30G | 0.452 ± 0.068
137 | L30D | 0.423 ± 0.093
138 | L30M | 0.483 ± 0.085
139 | E21S | 0.453 ± 0.064
140 | E21I | 0.245 ± 0.1
141 | E21D | -0.275 ± 0.12
142 | E21P | -0.27 ± 0.099
143 | E21L | 0.45 ± 0.06
144 | E21Y | 0.385 ± 0.12

Row | Variant | abundance fitness
145 | N58F | -0.422 ± 0.17
146 | N58H | -0.377 ± 0.13
147 | I41L | 0.069 ± 0.062
148 | S12K | -0.032 ± 0.078
149 | S12T | 0.017 ± 0.059
150 | S12R | -0.274 ± 0.06
151 | P42K | -0.737 ± 0.1
152 | P42G | -0.587 ± 0.073
153 | E4A | -0.286 ± 0.067
154 | E4Q | -0.103 ± 0.072
155 | E4Y | -0.777 ± 0.12
156 | E4N | -0.341 ± 0.12
157 | E4V | -0.629 ± 0.072
158 | T55L | -0.072 ± 0.073
159 | T55I | 0.122 ± 0.11
160 | T55N | 0.166 ± 0.12
161 | T55W | -0.295 ± 0.11
162 | D16M | -0.228 ± 0.091
163 | D16H | -0.033 ± 0.11
164 | P45E | 0.244 ± 0.11
165 | P45R | -0.716 ± 0.09
166 | P45N | -0.274 ± 0.08
167 | P45M | 0.019 ± 0.11
